From patent US20220289865A1 (MINERVA BIOTECHNOLOGIES, published 2022) come the findings set out here.

Groups on a side chain read outwards from the residue. No end group written: not given here.

For assay [1], the target named is T1, recombinant human NME7-AB (human, UniProt Q9Y5B8 92-376).
T1 construct: Expressed in E. coli, lacks the DM10 domain, monomer; also called NME7 monomer
T1 sequence: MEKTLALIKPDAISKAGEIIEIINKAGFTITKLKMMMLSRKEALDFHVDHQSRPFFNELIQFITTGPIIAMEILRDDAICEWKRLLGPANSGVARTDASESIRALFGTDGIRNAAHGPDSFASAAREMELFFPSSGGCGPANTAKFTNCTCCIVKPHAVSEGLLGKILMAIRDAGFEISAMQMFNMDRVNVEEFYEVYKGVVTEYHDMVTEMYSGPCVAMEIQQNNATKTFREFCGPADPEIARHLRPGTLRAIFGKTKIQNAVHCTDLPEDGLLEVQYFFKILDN
In words: ELISA, PSMGFR-Cys coupled BSA on the plate, NME7 detected with B-9. How it is done: (§1) The PSMGFR peptide bearing a C-terminal Cysteine (PSMGFR-Cys) was covalently coupled to BSA using Imject Maleimide activated BSA kit (Thermo Fisher). PSMGFR-Cys coupled BSA was diluted to 10 ug/mL in 0.1M carbonate/bicarbonate buffer pH 9.6 and 50 uL was added to each well of a 96 well plate. After overnight incubation at 4° C., the plate was washed twice with PBS-T and a 3% BSA solution was added to block remaining binding site on the well. After 1 h at RT the plate was washed twice with PBS-T and NME7, diluted in PBS-T+1% BSA, was added at different concentrations. After 1 h at RT the plate was washed 3× with PBS-T and anti-NM23-H7 (B-9, Santa Cruz Biotechnology), diluted in PBS-T+1% BSA, was added at 1/500 dilution. After 1 h at RT the plate was washed 3× with PBS-T and goat anti mouse-HRP, diluted in PBS-T+1% BSA, was added at 1/3333 dilution. After 1 h at RT the plate was washed 3× with PBS-T and binding of NME7 was measured at 415 nm using ABTS solution (Pierce).

The target of assay [2] is T1, recombinant human NME7-AB. The assay can be described thus: sandwich ELISA, PSMGFR-His bound to NME7 held by plate-bound PSMGFR, anti-Histag-HRP. How it is done: as §1, with “After 1 h at RT the plate was washed 3× with PBS-T and goat anti mouse-HRP, diluted in PBS-T+1% BSA, was added at 1/3333 dilution.” left out, “(Pierce). […]” for “(Pierce).”
(§2) After 1 h at RT the plate was washed 3× with PBS-T and HisTagged PSMGFR peptide (PSMGFR-His) or biotinylated PSMGFR peptide (PSMGFR-biotin), diluted in PBS-T+1% BSA, was added at different concentration. […] After 1 h at RT the plate was washed 3× with PBS-T and binding of PSMGFR peptide to NME7 already bound to another PSMGFR peptide (which could not signal by anti-His antibody or by streptavidin) coupled BSA was measured at 415 nm using a ABTS solution (Pierce).

For assay [3], the target named is T1, recombinant human NME7-AB. The assay can be described thus: sandwich ELISA, PSMGFR-biotin bound to NME7 held by plate-bound PSMGFR, streptavidin-HRP. The method, then:
as §1, with “After 1 h at RT the plate was washed 3× with PBS-T and goat anti mouse-HRP, diluted in PBS-T+1% BSA, was added at 1/3333 dilution.” left out, “(Pierce). […]” for “(Pierce).”
as §2
In general terms: In an ELISA, binding on a coated surface is turned into a signal by an enzyme label.

Assay [4] concerns the target T1, recombinant human NME7-AB. In words: sandwich ELISA. How it is done: as §1, with “After 1 h at RT the plate was washed 3× with PBS-T and goat anti mouse-HRP, diluted in PBS-T+1% BSA, was added at 1/3333 dilution.” left out, “(Pierce). […]” for “(Pierce).”
as §2

B1: PSMGFR peptide bearing a C-terminal Cysteine, coupled to BSA (peptide)
peptide: GTINVHDVETQFNQYKTEAASRYNLTISDVSVSDVPFPFSAQSGAC([maleimide-BSA])
notes: also called PSMGFR-Cys; PSMGFR-Cys coupled BSA
In the case of B1, in assay [1], the binding result is “binds”.

B2: His-tagged PSMGFR peptide (peptide)
peptide: GTINVHDVETQFNQYKTEAASRYNLTISDVSVSDVPFPFSAQSGA
notes: also called PSMGFR-His; not shown: histidine tag
B2: in assay [2], the binding result was “binds”.

As to GTINVHDVETQFNQYKTEAASRYNLTISDVSVSDVPFPFSAQSGA (also: biotinylated (position not given here), also called PSMGFR-biotin) [biotinylated PSMGFR peptide], in assay [3], the binding result is given as “binds”.

B3: MUC1* extracellular domain peptide (PSMGFR peptide) (peptide)
peptide: GTINVHDVETQFNQYKTEAASRYNLTISDVSVSDVPFPFSAQSGA
notes: also called synthetic MUC1* peptide; surface immobilized MUC1* peptide
For the molecule B3, the binding result in assay [4] is listed as “binds”.
